# What was measured:
# Assay in all cases: IEDB peptide-MHC binding, purified MHC/competitive/radioactivity; filed as Kd, often an IC50 or EC50 that approximates it; ≥ and ≤ were set here for values at or beyond the usual limits of such assays
# HLA-A*02:03 = target: HLA-A*02:03
# HLA-A*02:02 = conditions: source organism: Vaccinia virus WR
# HLA-A*02:06 = target: HLA-A*02:06
# HLA-A*31:01 = target: HLA-A*31:01
# HLA-A*11:01 = target: HLA-A*11:01
# HLA-A*33:01 = target: HLA-A*33:01
# HLA-A*68:01 = target: HLA-A*68:01
# HLA-A*03:01 = target: HLA-A*03:01
# [1] = source organism: Vaccinia virus WR
# [2] = source organism: SARS coronavirus Tor2
Sequence,Kd (HLA-A*31:01; [1]),Kd (HLA-A*11:01; [1]),Kd (HLA-A*33:01; [1]),Kd (HLA-A*68:01; [1]),Kd (HLA-A*03:01; [1]),also measured
AAKTPVIVV,–,–,–,–,–,Kd (HLA-A*02:03; [1]): 1630 nM; Kd (HLA-A*02:02): 1360 nM; Kd (HLA-A*02:06; [1]): ≥ 25400 nM
GLAFSIMKSV,–,–,–,–,–,Kd (HLA-A*02:03; source organism: Dengue virus 3 Martinique/1243/1999): 11.6 nM
DMMLMIGNY,11000 nM,12700 nM,3820 nM,780 nM,≥ 47700 nM,–
RTNDLTALL,–,–,–,–,–,Kd (HLA-A*02:03; [1]): 7.23 nM; Kd (HLA-A*02:02): 3.66 nM; Kd (HLA-A*02:06; [1]): 119 nM
LVVVTTLCAI,–,–,–,–,–,Kd (HLA-A*02:06; source organism: Dengue virus 4 Philippines/H241/1956): 91.2 nM
CTEETKRNI,–,–,–,–,–,Kd (HLA-A*02:03; [1]): ≥ 78100 nM; Kd (HLA-A*02:02): ≥ 77800 nM; Kd (HLA-A*02:06; [1]): ≥ 77100 nM
IFSPENKAFK,699 nM,756 nM,2470 nM,184 nM,96.4 nM,–
KIDKLTFQIY,3410 nM,17500 nM,13000 nM,1480 nM,1270 nM,–
YLGSANMDWR,1350 nM,921 nM,3690 nM,1070 nM,850 nM,–
RIENEMKINR,183 nM,2570 nM,10800 nM,803 nM,5560 nM,–
HVLGRLITV,–,–,–,–,–,Kd (HLA-A*02:06; source organism: Dengue virus 2 Jamaica/1409/1983): 8.84 nM
SINKVYGRY,140 nM,195 nM,≥ 77700 nM,1990 nM,526 nM,–
FIRRKYLIY,≥ 77900 nM,≥ 26900 nM,≥ 52400 nM,≥ 53500 nM,1500 nM,–
ISDNKKEYK,1820 nM,359 nM,10500 nM,3420 nM,1990 nM,–
ILARNEEGR,4570 nM,≥ 77900 nM,1050 nM,87 nM,16600 nM,–
ETVKMGAFMY,≥ 31500 nM,1570 nM,≥ 70000 nM,61.6 nM,≥ 70100 nM,–
LLSGHNLAK,–,–,–,–,–,Kd (HLA-A*31:01; [2]): 6690 nM; Kd (HLA-A*11:01; [2]): 90.9 nM; Kd (HLA-A*33:01; [2]): ≥ 77700 nM; Kd (HLA-A*68:01; [2]): 6580 nM; Kd (HLA-A*03:01; [2]): 4.61 nM
AAISKLGINY,1400 nM,357 nM,1210 nM,279 nM,320 nM,–

Sequence,Kd (HLA-A*31:01; [1]),Kd (HLA-A*11:01; [1]),Kd (HLA-A*33:01; [1]),Kd (HLA-A*68:01; [1]),Kd (HLA-A*03:01; [1]),also measured
LTAVCMKCFK,38.8 nM,7.88 nM,2050 nM,3.9 nM,29.8 nM,–
AIMQVFFGY,–,–,–,–,–,Kd (HLA-A*31:01; [2]): 452 nM; Kd (HLA-A*11:01; [2]): 1.39 nM; Kd (HLA-A*33:01; [2]): 1400 nM; Kd (HLA-A*68:01; [2]): 191 nM; Kd (HLA-A*03:01; [2]): 0.695 nM
LTRNPAWRK,–,–,–,–,–,Kd (HLA-A*31:01; [2]): 5020 nM; Kd (HLA-A*11:01; [2]): 3950 nM; Kd (HLA-A*33:01; [2]): 1570 nM; Kd (HLA-A*68:01; [2]): 1420 nM; Kd (HLA-A*03:01; [2]): 222 nM
MFMLIFNVK,125 nM,587 nM,4020 nM,1340 nM,1650 nM,–
MVASDVCKK,1680 nM,153 nM,6980 nM,65.8 nM,266 nM,–
AITDNGPMPY,≥ 60000 nM,340 nM,≥ 49600 nM,≥ 23500 nM,251 nM,–
ATFIDVHIPK,915 nM,0.269 nM,43.4 nM,3.44 nM,9.21 nM,–
FIFSALDEK,≥ 49200 nM,65.1 nM,≥ 66800 nM,24.5 nM,156 nM,–
IAHINTLIQY,8780 nM,975 nM,6860 nM,1510 nM,383 nM,–
IMKDGREIV,–,–,–,–,–,Kd (HLA-A*02:03; source organism: Dengue virus 1 Brazil/97-11/1997): 110 nM
IMSIGFEAR,30.3 nM,3140 nM,367 nM,221 nM,4950 nM,–
HTTAFFNTCK,113 nM,1.46 nM,14000 nM,2.13 nM,183 nM,–
TLNHVLALKY,≥ 69100 nM,1150 nM,≥ 52700 nM,13200 nM,168 nM,–
NTMCTEETK,≥ 77900 nM,27.9 nM,15700 nM,12.5 nM,≥ 78000 nM,–
GLKALYETEL,–,–,–,–,–,Kd (HLA-A*02:06; source organism: Homo sapiens): ≥ 71200 nM
IMEIVSHLR,11.9 nM,219 nM,53.3 nM,3.25 nM,1960 nM,–
NVPERQLILR,87.8 nM,323 nM,2.86 nM,0.0657 nM,18700 nM,–
RFNVAITRAK,–,–,–,–,–,Kd (HLA-A*31:01; [2]): 64 nM; Kd (HLA-A*11:01; [2]): 179 nM; Kd (HLA-A*33:01; [2]): 7770 nM; Kd (HLA-A*68:01; [2]): 168 nM; Kd (HLA-A*03:01; [2]): 168 nM

# From the Immune Epitope Database (IEDB)
